# Values quoted from earlier work as cited in article PMC7538161.
# Target: CaMKII calmodulin-binding element peptide (Peptide A) calmodulin-binding element peptide (Homo sapiens) (UniProt Q9UQM7)
# Sequence (Q9UQM7 290-309): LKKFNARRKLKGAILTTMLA
# Chain of CaMKII hub hub domain (Q9UQM7 345-475): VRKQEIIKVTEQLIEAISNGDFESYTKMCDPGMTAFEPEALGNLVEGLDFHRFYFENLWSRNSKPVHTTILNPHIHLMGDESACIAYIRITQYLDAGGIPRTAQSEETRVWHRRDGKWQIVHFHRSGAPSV
substance,measurement,value
CaMKII hub hub domain (from UniProt Q9UQM7),Kd,90 µM
